The results in this text go back to ChEMBL document CHEMBL1158843, “Development of a radiochemical cyclooxygenase-1 and -2 in vitro assay for identification of natural products as inhibitors of prostaglandin biosynthesis” (J Nat Prod, 1998).

Substrate in data set [1]: CCCCC/C=C\C/C=C\C/C=C\C/C=C\CCCC(=O)O
The experiment in a line: Activity of sheep placental cotyledons COX2. The settings on record: Ovis aries.

Substrate in data set [2]: CCCCC/C=C\C/C=C\C/C=C\C/C=C\CCCC(=O)O
Nature of the data set: Activity of bovine seminal microsomal COX1. Conditions: Bos taurus.

B1: Prostaglandin G/H synthase 2 (Ovis aries), P79208 (protein)
chain: MLARALLLCAAVVCGAANPCCSHPCQNRGVCMSVGFDQYKCDCTRTGFYGENCTTPEFLTRIKLLLKPTPDTVHYILTHFKGVWNIVNKISFLRNMIMRYVLTSRSHLIESPPTYNVHYSYKSWEAFSNLSYYTRALPPVPDDCPTPMGVKGRKELPDSKEVVKKVLLRRKFIPDPQGTNLMFAFFAQHFTHQFFKTDIERGPAFTKGKNHGVDLSHVYGESLERQHNRRLFKDGKMKYQMINGEMYPPTVKDTQVEMIYPPHIPEHLKFAVGQEVFGLVPGLMMYATIWLREHNRVCDVLKQEHPEWGDEQLFQTSRLILIGETIKIVIEDYVQHLSGYHFKLKFDPELLFNQQFQYQNRIAAEFNTLYHWHPLLPDVFQIDGQEYNYQQFIYNNSVLLEHGVTQFVESFTRQIAGRVAGRRNLPAAVEKVSKASLDQSREMKYQSFNEYRKRFLLKPYESFEELTGEKEMAAELEALYGDIDAMELYPALLVEKPAPDAIFGETMVEAGAPFSLKGLMGNPICSPEYWKPSTFGGEVGFKIINTASIQSLICSNVKGCPFTSFSVQDAHLTKTVTINASSSHSGLDDINPTVLLKERSTEL
For the protein B1, the Km in data set [1] was 9.7 µM.

B2: Prostaglandin G/H synthase 1 (Bos taurus), O62664 (protein)
chain: MSRQGISLRFPLLLLLLSPSPVLPADPGAPAPVNPCCYYPCQHQGICVRFGLDRYQCDCTRTGYYGPNCTIPEIWTWLRTTLRPSPSFVHFLLTHGRWLWDFVNATFIRDKLMRLVLTVRSNLIPSPPTYNVAHDYISWESFSNVSYYTRILPSVPRDCPTPMGTKGKKQLPDAEFLSRRFLLRRKFIPDPQGTNLMFAFFAQHFTHQFFKTSGKMGPGFTKALGHGVDLGHIYGDNLERQYQLRLFKDGKLKYQMLNGEVYPPSVEEAPVLMHYPRGIPPQSQMAVGQEVFGLLPGLMVYATIWLREHNRVCDLLKAEHPTWGDEQLFQTARLILIGETIKIVIEEYVQQLSGYFLQLKFDPELLFGAQFQYRNRIAMEFNQLYHWHPLMPDSFRVGPQDYSYEQFLFNTSMLVDYGVEALVDAFSRQPAGRIGGGRNIDHHILHVAVDVIKESRELRLQPFNEYRKRFGMKPYTSFQELTGEKEMAAELEELYGDIDALEFYPGLLLEKCHPNSIFGESMIEMGAPFSLKGLLGNPICSPEYWKASTFGGDVGFNLVKTATLKKLVCLNTKTCPYVSFHVPDPHREDRPGVERPPTEL
Consider B2, for which the Km in data set [2] was found to be 8.8 µM.

For orientation: Km means the substrate concentration at which the rate is half of its maximum.
